One test deals with 4H_GCN4. The test is described as follows: two-hybrid library CCmax.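 Note: natural log of median RNA to DNA barcode read ratio; higher means stronger binding.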
In a further test the target is T1, 4H3705-AA.
T1 chain: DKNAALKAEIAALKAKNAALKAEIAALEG
The test is described as follows: two-hybrid library CCmax.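 Note: natural log of median RNA to DNA barcode read ratio; higher means stronger binding.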 Particulars: mean of both orientations.

The next test deals with T2, 4H465-AA.
T2 chain: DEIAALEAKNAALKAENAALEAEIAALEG
The test is described as follows: two-hybrid library CCmax.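 Note: natural log of median RNA to DNA barcode read ratio; higher means stronger binding.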 The settings on record: mean of both orientations.

The target of another test is T3, 4H535-AA.
T3 chain: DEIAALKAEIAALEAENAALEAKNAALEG
The test is described as follows: two-hybrid library CCmax.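 Note: natural log of median RNA to DNA barcode read ratio; higher means stronger binding.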 The settings on record: mean of both orientations.

Another test addresses T4, 4H3651-AA.
T4 chain: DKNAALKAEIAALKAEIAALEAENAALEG
In words: two-hybrid library CCmax.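 Note: natural log of median RNA to DNA barcode read ratio; higher means stronger binding.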 Particulars: mean of both orientations.

A further test concerns the target T5, 4H3782-AA.
T5 chain: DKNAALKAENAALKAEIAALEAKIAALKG
In words: two-hybrid library CCmax.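 Note: natural log of median RNA to DNA barcode read ratio; higher means stronger binding.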 Particulars: mean of both orientations.

The target of a further test is GCN2_T. In words: two-hybrid library CCmax.
The next test has as its target T6, 4H895-AA.
T6 chain: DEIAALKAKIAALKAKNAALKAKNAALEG
The test is described as follows: two-hybrid library CCmax. The settings on record: mean of both orientations.

Another test has as its target T7, 4H486-AA.
T7 chain: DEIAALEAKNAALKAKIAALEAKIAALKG
In words: two-hybrid library CCmax. The settings on record: mean of both orientations.

In another test the target is T8, 4H3365-AA.
T8 chain: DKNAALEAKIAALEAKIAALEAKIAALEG
In words: two-hybrid library CCmax.

A further test addresses T9, 4H_APH.
T9 chain: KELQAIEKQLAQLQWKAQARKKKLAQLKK
The test is described as follows: two-hybrid library CCmax. Particulars: mean of both orientations.

A further test has as its target T10, 4H_BCR.
T10 chain: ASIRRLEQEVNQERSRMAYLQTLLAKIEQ
In words: two-hybrid library CCmax. The settings on record: mean of both orientations.

Another test concerns the target T11, 4H355-AA.
T11 chain: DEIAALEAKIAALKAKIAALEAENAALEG
The test is described as follows: two-hybrid library CCmax. The settings on record: mean of both orientations.

The next test deals with T12, P3-AA.
T12 chain: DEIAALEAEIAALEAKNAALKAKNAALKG
The test is described as follows: two-hybrid library CCmax.

The target in another test is T13, 4H58-AA.
T13 chain: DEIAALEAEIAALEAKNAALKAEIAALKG
In words: two-hybrid library CCmax. The settings on record: mean of both orientations.

The next test has as its target T14, O6-bH.
T14 chain: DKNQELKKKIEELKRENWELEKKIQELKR
In words: two-hybrid library CCNG1.

A further test concerns the target T15, O4-bH.
T15 chain: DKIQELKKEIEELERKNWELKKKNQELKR
The test is described as follows: two-hybrid library CCNG1.

In a further test the target is T16, O9-bH.
T16 chain: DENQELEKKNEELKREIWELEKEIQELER
The test is described as follows: two-hybrid library CCNG1.

The target of the next test is T17, O8-bH.
T17 chain: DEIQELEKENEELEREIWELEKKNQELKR
In words: two-hybrid library CCNG1.

A further test deals with T18, O5-bH.
T18 chain: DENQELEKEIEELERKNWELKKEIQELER
In words: two-hybrid library CCNG1.

In a further test the target is T19, O7-bH.
T19 chain: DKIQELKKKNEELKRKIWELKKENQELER
The test is described as follows: two-hybrid library CCNG1.

The target in a further test is T20, 4H346-bA.
T20 chain: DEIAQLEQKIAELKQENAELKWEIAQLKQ
In words: two-hybrid library CCNG1.

A further test concerns the target T21, 4H683-bA.
T21 chain: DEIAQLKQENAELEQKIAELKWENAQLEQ
In words: two-hybrid library CCNG1.

For a further test, the target named is T22, 4H575-bA.
T22 chain: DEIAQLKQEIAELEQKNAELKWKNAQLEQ
The test is described as follows: two-hybrid library CCNG1.

In another test the target is T23, 4H967-bA.
T23 chain: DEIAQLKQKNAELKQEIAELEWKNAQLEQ
The test is described as follows: two-hybrid library CCNG1.

Another test addresses T24, 4H855-bA.
T24 chain: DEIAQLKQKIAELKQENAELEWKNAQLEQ
The test is described as follows: two-hybrid library CCNG1.

The target in another test is T25, 4H687-bA.
T25 chain: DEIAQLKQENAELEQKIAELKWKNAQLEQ
The test is described as follows: two-hybrid library CCNG1.

For the next test, the target named is T26, 4H797-bA.
T26 chain: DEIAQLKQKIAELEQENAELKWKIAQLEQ
In words: two-hybrid library CCNG1.

A further test concerns the target T27, 4H918-bA.
T27 chain: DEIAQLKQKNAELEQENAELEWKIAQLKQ
In words: two-hybrid library CCNG1.

For the next test, the target named is T28, 4H883-bA.
T28 chain: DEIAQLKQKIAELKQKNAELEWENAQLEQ
The test is described as follows: two-hybrid library CCNG1.

For the next test, the target named is T29, 4H3855-bA.
T29 chain: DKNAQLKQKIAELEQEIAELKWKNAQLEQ
The test is described as follows: two-hybrid library CCNG1.

The next test concerns the target T30, 4H331-bA.
T30 chain: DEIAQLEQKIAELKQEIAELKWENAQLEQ
The test is described as follows: two-hybrid library CCNG1.

The next test addresses T31, 4H72-bA.
T31 chain: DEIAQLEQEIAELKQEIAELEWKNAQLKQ
The test is described as follows: two-hybrid library CCNG1.

A further test has as its target T32, 4H457-bA.
T32 chain: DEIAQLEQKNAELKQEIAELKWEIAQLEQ
The test is described as follows: two-hybrid library CCNG1.

Another test concerns the target T33, 4H3782-bA.
T33 chain: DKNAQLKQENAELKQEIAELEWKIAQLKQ
In words: two-hybrid library CCNG1.

The next test addresses T34, 4H3112-bA.
T34 chain: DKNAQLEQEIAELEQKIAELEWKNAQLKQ
In words: two-hybrid library CCNG1.

For a further test, the target named is T35, 4H3926-bA.
T35 chain: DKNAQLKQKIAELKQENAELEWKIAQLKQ
The test is described as follows: two-hybrid library CCNG1.

A further test has as its target T36, 4H454-bA.
T36 chain: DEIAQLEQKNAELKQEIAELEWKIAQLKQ
In words: two-hybrid library CCNG1.

The target in the next test is T37, 4H3185-bA.
T37 chain: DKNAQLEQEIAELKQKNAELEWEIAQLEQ
In words: two-hybrid library CCNG1.

The target of another test is T38, 4H3427-bA.
T38 chain: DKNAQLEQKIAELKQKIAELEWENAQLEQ
In words: two-hybrid library CCNG1.

The target of the next test is T39, 4H4001-bA.
T39 chain: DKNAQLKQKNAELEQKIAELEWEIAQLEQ
In words: two-hybrid library CCNG1.

The next test concerns the target T40, 4H908-bA.
T40 chain: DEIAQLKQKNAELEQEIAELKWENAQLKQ
The test is described as follows: two-hybrid library CCNG1.

The target of the next test is T41, 4H607-bA.
T41 chain: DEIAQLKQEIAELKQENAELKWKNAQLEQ
In words: two-hybrid library CCNG1.

The target in another test is T42, 4H338-bA.
T42 chain: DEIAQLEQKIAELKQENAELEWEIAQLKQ
In words: two-hybrid library CCNG1.

Another test addresses T43, 4H754-bA.
T43 chain: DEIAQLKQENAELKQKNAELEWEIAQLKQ
The test is described as follows: two-hybrid library CCNG1.

The target of another test is T44, 4H3354-bA.
T44 chain: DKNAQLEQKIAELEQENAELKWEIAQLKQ
The test is described as follows: two-hybrid library CCNG1.

Another test has as its target T45, 4H953-bA.
T45 chain: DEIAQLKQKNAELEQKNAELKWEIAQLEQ
The test is described as follows: two-hybrid library CCNG1.

For another test, the target named is T46, 4H4073-bA.
T46 chain: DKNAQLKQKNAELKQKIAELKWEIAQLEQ
In words: two-hybrid library CCNG1.

Another test addresses T47, 4H568-bA.
T47 chain: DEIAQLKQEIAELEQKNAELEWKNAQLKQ
The test is described as follows: two-hybrid library CCNG1.

The next test has as its target T48, 4H780-bA.
T48 chain: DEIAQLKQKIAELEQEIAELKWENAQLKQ
The test is described as follows: two-hybrid library CCNG1.

In a further test the target is T49, 4H968-bA.
T49 chain: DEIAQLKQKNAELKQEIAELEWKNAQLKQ
In words: two-hybrid library CCNG1.

In a further test the target is T50, 4H717-bA.
T50 chain: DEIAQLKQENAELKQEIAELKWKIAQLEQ
The test is described as follows: two-hybrid library CCNG1.

4H_GCN4, sequence (chain, as listed by the source): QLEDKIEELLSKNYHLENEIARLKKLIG

On to DKNAALEAKIAALEAKIAALEAKIAALEG [4H3365-AA], for which the interaction score with 4H_GCN4 was -1.72; in the test with 4H3705-AA, -1.25; in the test with 4H465-AA, -1.05; in the test with 4H535-AA, -1.33; in the test with 4H3651-AA, -0.441; with 4H3782-AA it was -1.46. Also, the interaction score with GCN2_T is -1.79; with 4H895-AA, -1.35; in the test with 4H486-AA it was -1.2; in the test with 4H3365-AA, 1.76; in the test with 4H_APH it was -1.21; with 4H_BCR, -1.47. Further, the interaction score with 4H355-AA is -0.823; in the test with P3-AA, -2.3; in the test with 4H58-AA it was -1.67.

Regarding DKIQELKKEIEELERKNWELKKKNQELKR [O4-bH], the interaction score in the test with O6-bH is 0.0257; with O4-bH it was -1.04; with O9-bH, -2.1; with O8-bH, 1.07; with O5-bH, -1.47; in the test with O7-bH, 0.376.

With DKNAQLEQEIAELEQKIAELEWKNAQLKQ [4H3112-bA], the interaction score with 4H346-bA was -0.0408; in the test with 4H683-bA, -0.379; with 4H575-bA it was -0.587; in the test with 4H967-bA it was -0.715; with 4H855-bA, 1.01; with 4H687-bA, -1.13. For the same molecule, the interaction score with 4H797-bA was 0.364; in the test with 4H918-bA it was -1.88; with 4H883-bA, 0.791; in the test with 4H3855-bA it was -0.227; with 4H331-bA, 0.496; in the test with 4H72-bA it was -0.233. Also, the interaction score was -0.509 in the test with 4H457-bA; -0.731 with 4H3782-bA; 1.17 with 4H3112-bA; -0.342 with 4H3926-bA; -1.72 with 4H454-bA; 0.447 with 4H3185-bA. The interaction score in the test with 4H3427-bA was 1.55; with 4H4001-bA, -0.41; with 4H908-bA, 0.0545; with 4H607-bA it was -0.643; with 4H338-bA, -0.842; with 4H754-bA, -0.483. In addition, the interaction score in the test with 4H3354-bA is 0.000615; with 4H953-bA, -0.984; with 4H4073-bA, 1.32; with 4H568-bA it was -1.31; with 4H780-bA, -0.567; in the test with 4H968-bA it was -1.09. For the same molecule, the interaction score with 4H717-bA was determined as 0.267.
